Reference: patent US11142588B2, “Polypeptides which bind C-X-C chemokine receptor type 4 (CXCR4) and methods of treating or reducing the risk of fibrosis and cancer” (AdAlta Limited, priority 2015, dated 2021)
Several values for one entry are separate records, joined by “and”; a condition that tells them apart may be missing. Equal values may be shown once.

Key:
Ramos tumor cells = experiment: Apoptosis assay (annexin V / propidium iodide flow cytometry); assay type: cell-based, human; conditions: annexin V and propidium iodide double positive, 24 or 72 hours
Experimental: The ability of an i-body of the invention to induce apoptosis in Ramos tumor cells (a human Burkitt's lymphoma cell line) was examined in an apoptosis assay according to the methods as described in Mishra M et al (2011) J Cell Mol Med 15(11):2462-77. I-bodies were incubated with Ramos cells and examined by flow cytometry after 24 or 72 hours. The cells were stained for annexin V and propidium iodide which are classic markers for apoptosis. Cells which were double positive were assessed to have become apoptotic.

[1] = cited from earlier work; for bleomycin induced pulmonary fibrosis: Xu et al 2007
[2] = mouse, in vivo, iv, 2 mg/kg
Experimental: A series of blood samples from all mice (0.3 mL, 2 time point/mouse 3/group/time point) were collected following dosing as follows:
For this purpose, each mouse (CD-1 mouse) was bled via the saphenous vein or under isoflurane anaesthesia by cardiac puncture and the samples collected into tubes containing the anticoagulant, K2-EDTA. Tubes were placed on wet ice pending processing. Following its last blood sampling, each animal was euthanized by cervical dislocation and discarded without further examination.
Following collection, the samples were centrifuged (approximately 4° C.) and the resulting plasma was recovered in two separate aliquots and stored frozen (60° C.) in labeled Protein LoBind 1.5 mL tubes (Eppendorf, cat no. 022431081).

[3] = target: T1, human CXCR4 (CXCR4 positive lipoparticles) (Homo sapiens, UniProt P61073); experiment: Biacore SPR kinetic binding to immobilised CXCR4 lipoparticles
T1 construct: purchased Integral Molecular LEV-101B
T1 sequence (P61073 whole entry): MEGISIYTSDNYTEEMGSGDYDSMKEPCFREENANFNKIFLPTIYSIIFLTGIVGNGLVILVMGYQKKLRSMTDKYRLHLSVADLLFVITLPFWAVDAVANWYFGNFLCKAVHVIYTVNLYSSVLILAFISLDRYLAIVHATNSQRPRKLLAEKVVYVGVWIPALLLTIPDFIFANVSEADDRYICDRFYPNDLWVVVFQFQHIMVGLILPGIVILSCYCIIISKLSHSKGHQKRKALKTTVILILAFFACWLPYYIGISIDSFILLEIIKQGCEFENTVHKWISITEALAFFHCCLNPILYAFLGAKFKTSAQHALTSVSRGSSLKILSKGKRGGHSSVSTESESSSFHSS
Experimental: (FIGS. 2A-2C, 5A-5C, 11A-11D, 17A-17B) Kinetic binding analysis of selected i-bodies with immobilized CXCR4 lipoparticles were performed at 25° C. using Biacore T200 instrument (GE Healthcare, Uppsala, Sweden). Streptavidin immobilization was performed in 1×HBS-P+ running buffer (10 mM HEPES, 150 mM NaCl, 0.05% [v/v] Tween-20). […] All binding experiments involving lipoparticles were performed with 1×HBS/BSA (10 mM HEPES, 150 mM NaCl, 1 mg/mL BSA) as instrument running buffer. […] In order to determine binding kinetics, serial dilutions (three-fold) of i-bodies diluted in 1×HBS/BSA were injected over immobilized lipoparticles with the association and dissociation phases monitored for 60 sec and 600 sec, respectively. A control measurement of the instrument running buffer (“zero-buffer” blank) solution was also included for double referencing purposes. Collected experimental data were processed using Scrubber software (www.biologic.com.au). Kinetic parameters (ka=association and kd=dissociation rate constants) and equilibrium dissociation constant (KD=kd/ka) were derived by fitting each set of experimental data to a Langmuir 1:1 binding model. All interaction measurements were performed in triplicate and the derived binding parameters reported as averaged values±standard deviation.

CCR4 = target: T2, CCR4 (Homo sapiens, UniProt P51679); experiment: PathHunter (DiscoverX) β-arrestin assay, CCR4; assay type: cell-based
T2 sequence (P51679 1-360): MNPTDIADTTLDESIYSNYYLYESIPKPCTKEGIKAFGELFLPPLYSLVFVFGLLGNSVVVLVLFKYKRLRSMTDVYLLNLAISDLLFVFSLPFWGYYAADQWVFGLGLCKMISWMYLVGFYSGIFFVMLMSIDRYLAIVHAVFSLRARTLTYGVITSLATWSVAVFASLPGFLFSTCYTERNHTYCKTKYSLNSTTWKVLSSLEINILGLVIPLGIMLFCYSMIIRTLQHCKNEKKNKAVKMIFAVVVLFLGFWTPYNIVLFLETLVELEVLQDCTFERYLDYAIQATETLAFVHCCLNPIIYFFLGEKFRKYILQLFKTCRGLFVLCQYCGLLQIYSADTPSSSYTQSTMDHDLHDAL
Experimental: (FIG. 9) The PathHunter® β-Arrestin assay (DiscoveRx) was performed according to the manufacturer's protocol. Cells were seeded into white walled, 384-well tissue culture-treated microplates (Corning) and normalized at 5,000 cells (or 10,000 cells for CXCR4) in a total volume of […]. Cell growth was at 37° C. (5% CO2, 95% relative humidity). […] Agonists were then added at the EC80 concentration and incubation was continued at 37° C. for 90 min (or 180 min for CCR1). Assay signal was generated through a single addition of 15 μL (50% v/v) of PathHunter Detection reagent cocktail, followed by 1 h incubation at room temperature. Microplates were read following signal generation with a PerkinElmer Envision instrument for chemiluminescent signal detection of relative light units (RLU).

CXCR4 = CXCR4 (Homo sapiens, UniProt P61073); experiment: β-arrestin BRET assay, antagonist mode with 100 nM SDF-1; assay type: cell-based; parameters: expressed in transfected cells; host or cells: HEK293FT; conditions: only an order of magnitude is printed in the cell
CXCR4, sequence (P61073 whole entry): as the sequence (P61073 whole entry) above
Source text: (FIGS. 3A-3F and 14) BRET was used in this study to assess the real-time kinetic profiles resulting from any consequent increase in proximity, building upon the previously validated monitoring of GPCR/β-arrestin interactions utilizing BRET. BRET occurs between a complementary Renilla luciferase (Rluc) variant as donor and green fluorescent protein variant as acceptor. Upon Rluc-catalyzed oxidation of the coelenterazine substrate (such as coelenterazine h for first generation BRET (BRET) or EnduRen for extended BRET (eBRET), energy is transferred to the acceptor if within 10 nm, resulting in acceptor light emission peaking at a characteristic wavelength. BRET (3-arrestin assays were carried out as described previously (See, H. B., Seeber, R. M., Kocan, M., Eidne, K. A. and Pfleger, K. D. (2011) ‘Application of G protein-coupled receptor-heteromer identification technology to monitor beta-arrestin recruitment to G protein-coupled receptor heteromers’, Assay Drug Dev Technol, 9(1), 21-30, 10.1089/adt.2010.0336). CXCR4/Rluc8 cDNA constructs were generated from plasmids containing the respective receptor cDNA tagged with Rluc kindly provided by Aron Chakera (Oxford University, United Kingdom). The β-arrestin 2/Venus cDNA construct was prepared previously from pCS2-Venus kindly provided by Atsushi Miyawaki (RIKEN Brain Science Institute, Wako-city, Japan). BRET technology in cells transiently expressing CXCR4/Rluc8 and β-arrestin2/Venus in the presence of 100 nM SDF-1 agonist was evaluated in the presence of the CXCR4 agonist SDF-1/CXCL12 and the i-bodies. HEK293FT cells were maintained at 37° C., 5% CO2 in Complete Media (Dulbecco's modified Eagle's medium containing 0.3 mg/mL glutamine, 100 IU/mL penicillin, and […] streptomycin; Gibco) supplemented with 10% fetal calf serum (FCS) and […] Geneticin (Gibco). Transfections were carried out 24 h after seeding using Genejuice (Novagen) according to manufacturer's instructions. Cells were harvested with 0.05% Trypsin-EDTA (Gibco). HEK293FT cells were transfected using FuGene6 (Promega). 5 μM coelenterazine h (Promega) in HBSS was used as the luciferase substrate solution. Cells were harvested 24 h post-transfection in HEPES-buffered phenol red-free Complete Medium containing 5% FCS and added to a poly-L-lysine-coated white 96-well plate (Nunc). Dose-response curves were generated using BRET, with medium in the plate being replaced with PBS containing […] coelenterazine h (Molecular Probes) and assays carried out immediately. For these assays, 48 h post-transfection, the plate was incubated at […], 5% CO2 for 2 h with […] EnduRen (Promega) to ensure substrate equilibrium was reached. All BRET measurements were taken at 37° C. using the VICTOR Light plate reader with Wallac 1420 software (PerkinElmer). Filtered light emissions were sequentially measured at 400-475 and 520-540 nm. The BRET signal was calculated by subtracting the ratio of 520-540 nm emission over 400-475 nm emission for a vehicle-treated cell sample from the same ratio for a second aliquot of the same cells treated with agonist (in this instance in the presence of SDF-1 or CXCL12) and i-body (ADCX-99, ADCX-272, ACDX-6, ACDX-306, ADCX-668) at various concentrations. Data are mean±S.E.M. of four independent experiments carried out in duplicate.
Binding of the i-bodies to CXCR4 were examined in a β-Arrestin BRET assay as described in See, Heng B et al (2011) Assay and Drug Development Technologies 9(1):21-30. The i-bodes were examined at ten concentrations with and without 100 nM SDF-1 with the addition of ‘vehicle’ and ‘SDF-1+vehicle’ controls in order to characterise if the i-bodies are agonist or antagonists of CXCR4 activity.

CCL2 and CCL5 protein = experiment: CCL2, CCL5, CXCL12 ELISA of fibroblast conditioned supernatants; assay type: cell-based, human; conditions: 48 hours
Source text: Various reports indicate that CXCR4 signals in conjunction with other chemokine receptors, including CCR2.

[4] = CXCR4 expressed on lipoparticles (Table 4)
[5] = off-rate, CXCR4 expressed on lipoparticles (Table 3)

For `C/C=C(/C)C(=O)O[C@H]1C(C)=C2[C@H]([C@@H]1OC(=O)CCCCCCC)[C@@](C)(OC(C)=O)C[C@H](OC(=O)CCC)[C@@]1(O)[C@H]2OC(=O)[C@@]1(C)O` [Thapsigargin, reference compound], the “induction of apoptosis in Ramos cells” value (Ramos tumor cells) was “expected level of apoptosis”.

In the case of `c1cnc(NCc2ccc(CNc3ncccn3)cc2)nc1` [MSX-122], the “development of pulmonary fibrosis in irradiated mice” value ([1]; Shu et al 2013) is listed as “significant reductions in development of pulmonary fibrosis” and the “bleomycin induced pulmonary fibrosis” value [1] is listed as “completely preventing bleomycin-induced lung fibrosis”.

For TN14003, the “bleomycin induced pulmonary fibrosis” value [1] is listed as “blocks development of pulmonary fibrosis”.

B1: AM3-114-Im7-FH-SA21: dual specificity i-body, AM3-114 with 18-residue HSA binding peptide SA21, SEQ ID NO: 80 (protein)
chain: MALQVDIVPSQGEISVGESKFFLCQVAGSLSGIRISWFSPNGEKLTPNQQRISVVWNDDSSSTLTIYNANIDDAGIYKCVVWRTGGYRHRYLVLGEATVNVKIFQGGGGSELKNSISDYTEAEFVQLLKEIEKENVAATDDVLDVLLEHFVKITEHPDGTDLIYYPSDNRDDSPEGIVKEIKEWRAANGKPGFKQGGGGGSDYKDDDDKGSGHHHHHHHHGGGGSRLIEDICLPRWGCLWEDD
modifications: protein sequence encoding AM3-114-Im7-FH-SA21 dual specificity ibody
In the case of B1, the AUC0-T [2] is reported as 25266 ng·h/mL, the “Auc0-∞” value [2] is reported as 25544 ng·h/mL and the C0 [2] is reported as 23284 ng/mL. The ClTOT [2] was 1.3049 mL/min/kg, the Thalf [2] was 0.95 h and the Tlast [2] was 6.00 h. It also gave a VD [2] of 0.107571 L/kg and a λZ [2] of 0.7279 h⁻¹.

B2: AM5-245: affinity matured CXCR4 i-body, SEQ ID NO: 68 (protein)
chain: LQVDIVPSQGEISVGESKFFLCQAAGSGSHIRISWFSPNGEKLTPNQQRISVVWNDDSSSTLTIYNANIDDAGIYKCVVWRTGGYRHRALVLGEATVNVKIFQ
modifications: protein sequence encoding AM5-245
For B2, the Ka [3, 4] was 813000 M⁻¹ s⁻¹ and 771000 M⁻¹ s⁻¹, the “dissociation rate constant (kd)” value [3, 4] was 12100 M⁻¹ s⁻¹ and 12300 M⁻¹ s⁻¹ and the “dissociation rate constant (kd)” value [3, 5] was 0.01445. The CCR4 activity (CCR4) was −5% and the “IC50 in β-Arrestin BRET assay (Antagonist mode in the presence of 100 nM SDF-1)” value (CXCR4) was “~uM”.

B3: AM3-920: affinity matured CXCR4 i-body, SEQ ID NO: 44 (protein)
chain: LQVDIVPSQGEISVGESKFFLCQVAGSGSGIRISWFSPNGEKLTPNQQRISVVWNDDSSSTLTIYNANIDDAGIYKCVVWRTGGYRHRYLVLGEATVNVKIFQ
modifications: protein sequence encoding AM3-920
In the case of B3, the Ka [3, 4] is reported as 1.117e+06 M⁻¹ s⁻¹ and 1.26e+06 M⁻¹ s⁻¹, the “dissociation rate constant (kd)” value [3, 4] is reported as 8020 M⁻¹ s⁻¹ and 7410 M⁻¹ s⁻¹ and the “dissociation rate constant (kd)” value [3, 5] is reported as 0.00817. For the same molecule, the “IC50 in β-Arrestin BRET assay (Antagonist mode in the presence of 100 nM SDF-1)” value (CXCR4) was “~uM”.

B4: AM3-523-6H: AM3-523 with 6 His tag, containing the N-terminal sequence EAEA (protein)
chain: EAEALQVDIVPSQGEISVGESKFFLCQVAGSGSHMRISWFSPNGEKLTPNQQRISVVWNDDSSSTLTIYNANIDDAGIYKCVVWRVGGYRHRALVLGEATVNVKIFQ
modifications: left off: small tags and cut ends
With B4 the “induction of apoptosis in Ramos cells” value (Ramos tumor cells) was “strongly induce apoptosis”.

B5: 21H5-6H: control iBody 21H5 with 6 His tag (protein)
chain: LQVDIVPSQGEISVGESKFFLCQVAGDAKDKDISWFSPNGEKLTPNQQRISVVWNDDSSSTLTIYNANIDDAGIYKCVVTGSDAMSNYSYPISESEATVNVKIFQ
With B5 the “CCL5 levels in IPF lung fibroblasts” value (CCL2 and CCL5 protein) was “observed in one slow-IPF lung fibroblast line”.
